The target in test [1] is T1, CD22 on Raji and Daudi cells (human, UniProt P20273).
T1 construct: on the cell surface of the human B cell lines Raji and Daudi; the sheet names only the cell lines (Raji, Daudi); CD22 is the target that the text gives for Epratuzumab
Kind of test: FACS on Raji cells, Alexa Fluor 488 anti-human IgG1, MFI; the curve reaches only about 130 MFI.

Test [2] addresses T2, CD3 on the cell surface of Jurkat cells (human, UniProt P07766 23-207).
T2 construct: whole, on cells; CD3 is a complex of several chains; also called CD3 (Jurkat)
Kind of test: FACS on Jurkat cells, Alexa Fluor 488 anti-human IgG1, MFI.

The target in another test is VEGF (UniProt P15692-4 27-191, limits assumed). Briefly: method not stated.
Sequence of VEGF (P15692 other isoform, or with tags, fused parts or gaps limits assumed): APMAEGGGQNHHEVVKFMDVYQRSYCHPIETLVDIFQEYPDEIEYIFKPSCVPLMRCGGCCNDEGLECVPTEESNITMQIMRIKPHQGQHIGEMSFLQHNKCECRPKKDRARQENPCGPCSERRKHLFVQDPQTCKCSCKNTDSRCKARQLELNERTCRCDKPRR
Another test deals with IGF1R (UniProt P08069 31-932, limits assumed). Kind of test: method not stated.
The next test has as its target membrane EGFR on cells (human, UniProt P00533 25-1210). Briefly: cell-based or functional assay.
The target of test [3] is T3, human EGFR, recombinant protein (human, UniProt P00533 25-645).
T3 construct: also called hEGFR
Briefly: protein based binding; method not stated.

The target in the next test is Cyno EGFR (cynomolgus, UniProt A0A2K5WK39 25-645). Briefly: protein based binding; method not stated.
Test [4] concerns the target T4, c-Met, recombinant protein (human, UniProt P08581 25-932, limits assumed).
T4 construct: also called human cMet; cMet-his
Kind of test: SPR.

Test [5] deals with T5, human PD-L1, recombinant protein (human, UniProt Q9NZQ7 19-239, limits assumed).
T5 construct: also called rhPD-L1; PD-L1-his
T5 sequence (Q9NZQ7 19-239 limits assumed): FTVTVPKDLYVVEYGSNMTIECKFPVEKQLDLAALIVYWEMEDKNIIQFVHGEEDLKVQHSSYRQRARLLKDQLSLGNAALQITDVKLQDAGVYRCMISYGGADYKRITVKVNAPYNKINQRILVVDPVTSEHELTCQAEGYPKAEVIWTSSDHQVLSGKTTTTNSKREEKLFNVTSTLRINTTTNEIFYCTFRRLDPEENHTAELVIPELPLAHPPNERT
Kind of test: SPR.

Test [6] deals with T3, human EGFR, recombinant protein. Kind of test: method not stated.
The next test concerns the target T6, hPD1-Fc (human, UniProt Q15116 25-167).
T6 construct: not shown: Fc part not described
Briefly: SPR.

Test [7] deals with T4, c-Met, recombinant protein. Kind of test: method not stated.
For test [8], the target named is T4, c-Met, recombinant protein. Kind of test: protein based binding; method not stated.
The target in the next test is Cyno cMet (cynomolgus, UniProt A0A2K5UM36 25-932). Briefly: protein based binding; method not stated.
Sequence of Cyno cMet (A0A2K5UM36 entry or part of it limits assumed): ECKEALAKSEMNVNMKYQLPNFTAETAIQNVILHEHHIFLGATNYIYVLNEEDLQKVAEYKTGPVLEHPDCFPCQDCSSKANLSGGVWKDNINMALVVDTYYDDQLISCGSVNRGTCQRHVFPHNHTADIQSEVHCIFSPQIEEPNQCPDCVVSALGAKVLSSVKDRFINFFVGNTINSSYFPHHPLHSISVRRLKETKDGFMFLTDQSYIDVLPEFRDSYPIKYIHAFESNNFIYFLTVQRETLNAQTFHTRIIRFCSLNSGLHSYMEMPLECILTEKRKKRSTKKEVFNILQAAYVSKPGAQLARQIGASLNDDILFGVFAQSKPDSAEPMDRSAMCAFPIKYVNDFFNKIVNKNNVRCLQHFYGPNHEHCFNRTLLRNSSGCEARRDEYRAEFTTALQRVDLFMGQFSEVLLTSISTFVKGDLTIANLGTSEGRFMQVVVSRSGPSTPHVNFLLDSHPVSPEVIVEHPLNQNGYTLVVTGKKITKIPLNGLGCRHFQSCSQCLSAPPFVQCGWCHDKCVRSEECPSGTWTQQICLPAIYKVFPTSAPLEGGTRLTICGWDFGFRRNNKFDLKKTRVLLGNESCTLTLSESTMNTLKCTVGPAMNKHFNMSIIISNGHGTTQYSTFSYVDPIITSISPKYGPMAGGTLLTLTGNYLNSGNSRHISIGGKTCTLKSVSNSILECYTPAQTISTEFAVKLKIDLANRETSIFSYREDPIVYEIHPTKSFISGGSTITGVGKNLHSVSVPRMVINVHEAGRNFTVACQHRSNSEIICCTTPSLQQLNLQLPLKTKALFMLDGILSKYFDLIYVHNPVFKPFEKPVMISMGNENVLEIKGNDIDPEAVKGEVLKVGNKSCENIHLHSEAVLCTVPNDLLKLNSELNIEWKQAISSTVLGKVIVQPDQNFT
The target of test [9] is T2, CD3 on the cell surface of Jurkat cells. Briefly: FACS on Jurkat cells, 100 nM.
Test [10] deals with T5, human PD-L1, recombinant protein. Briefly: method not stated.
Test [11] concerns the target T3, human EGFR, recombinant protein. Kind of test: method not stated. The source holds these as a separate data set.
Test [12] addresses T5, human PD-L1, recombinant protein. Briefly: method not stated. This is another data set of the same source.
The target is the same in test [13]. Kind of test: SPR Biacore X100, antigen immobilised on CM5, Ig injected.

T4 sequence (P08581 25-932 limits assumed): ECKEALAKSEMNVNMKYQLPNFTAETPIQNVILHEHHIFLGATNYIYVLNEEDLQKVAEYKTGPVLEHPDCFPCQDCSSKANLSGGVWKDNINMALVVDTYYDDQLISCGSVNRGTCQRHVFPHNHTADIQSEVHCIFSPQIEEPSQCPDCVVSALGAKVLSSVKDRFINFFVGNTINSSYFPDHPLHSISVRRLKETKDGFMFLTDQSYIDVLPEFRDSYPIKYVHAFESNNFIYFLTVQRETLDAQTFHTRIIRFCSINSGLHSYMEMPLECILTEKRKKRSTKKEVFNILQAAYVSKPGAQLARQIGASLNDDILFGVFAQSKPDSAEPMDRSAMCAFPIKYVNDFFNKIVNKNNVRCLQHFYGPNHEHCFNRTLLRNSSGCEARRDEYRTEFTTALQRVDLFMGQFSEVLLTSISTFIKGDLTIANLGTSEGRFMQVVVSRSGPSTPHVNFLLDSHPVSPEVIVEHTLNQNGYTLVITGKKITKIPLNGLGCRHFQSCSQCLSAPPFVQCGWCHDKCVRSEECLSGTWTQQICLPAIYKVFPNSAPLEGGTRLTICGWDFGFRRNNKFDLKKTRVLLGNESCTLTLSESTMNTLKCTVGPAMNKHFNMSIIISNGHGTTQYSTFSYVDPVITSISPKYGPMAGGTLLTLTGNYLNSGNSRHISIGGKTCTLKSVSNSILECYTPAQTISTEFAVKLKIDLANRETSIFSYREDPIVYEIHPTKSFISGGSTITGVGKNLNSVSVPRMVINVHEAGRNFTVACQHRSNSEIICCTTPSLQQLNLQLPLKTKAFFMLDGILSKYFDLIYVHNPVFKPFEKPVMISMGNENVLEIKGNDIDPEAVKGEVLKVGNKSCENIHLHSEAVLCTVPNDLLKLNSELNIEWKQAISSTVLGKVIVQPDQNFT
T6 sequence (Q15116 25-167): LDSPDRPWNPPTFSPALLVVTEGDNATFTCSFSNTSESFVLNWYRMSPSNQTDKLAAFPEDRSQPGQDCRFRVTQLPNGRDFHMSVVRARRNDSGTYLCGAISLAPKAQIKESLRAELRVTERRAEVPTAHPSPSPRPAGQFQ

B1: Epratuzumab (antibody, V domains shown)
VH: QVQLVQSGAEVKKPGSSVKVSCKASGYTFTSYWLHWVRQAPGQGLEWIGYINPRNDYTEYNQNFKDKATITADESTNTAYMELSSLRSEDTAFYFCARRDITTFYWGQGTTVTVSS
VL: DIQLTQSPSSLSASVGDRVTMSCKSSQSVLYSANHKNYLAWYQQKPGKAPKLLIYWASTRESGVPSRFSGSGSGTDFTFTISSLQPEDIATYYCHQYLSSWTFGGGTKLEIK
notes: also called CD22 antibody Epratuzumab
Regarding B1, the EC50 in [1] stood at 13.2 nM.

B2: anti-CD20 mAb Ofatumumab (antibody, V domains shown)
VH: EVQLVESGGGLVQPGRSLRLSCAASGFTFNDYAMHWVRQAPGKGLEWVSTISWNSGSIGYADSVKGRFTISRDNAKKSLYLQMNSLRAEDTALYYCAKDIQYGNYYYGMDVWGQGTTVTVSS
VL: EIVLTQSPATLSLSPGERATLSCRASQSVSSYLAWYQQKPGQAPRLLIYDASNRATGIPARFSGSGSGTDFTLTISSLEPEDFAVYYCQQRSNWPITFGQGTRLEIK
notes: parental mAb
In the case of B2, the binding result in test [2] is listed as “no binding (tested: about 130 nM)”.

B3: FIT017a DLL4 (demcizumab)/VEGF (bevcizumab) (bispecific antibody, human IgG1, kappa)
chain 1: not shown
chain 2: QVQLVQSGAEVKKPGASVKISCKASGYSFTAYYIHWVKQAPGQGLEWIGYISSYNGATNYNQKFKGRVTFTTDTSTSTAYMELRSLRSDDTAVYYCARDYDYDVGMDYWGQGTLVTVSSASTKGPSVFPLAPSSKSTSGGTAALGCLVKDYFPEPVTVSWNSGALTSGVHTFPAVLQSSGLYSLSSVVTVPSSSLGTQTYICNVNHKPSNTKVDKKVEPKSC
chain 3: not shown
notes: leader left out
In turn, B3 yielded a Kd in the test with VEGF of 0.0365 nM.

B4: IGF-1R antibody Figitumumab (antibody, V domains shown)
VH: EVQLLESGGGLVQPGGSLRLSCTASGFTFSSYAMNWVRQAPGKGLEWVSAISGSGGTTFYADSVKGRFTISRDNSRTTLYLQMNSLRAEDTAVYYCAKDLGWSDSYYYYYGMDVWGQGTTVTVSS
VL: DIQMTQFPSSLSASVGDRVTITCRASQGIRNDLGWYQQKPGKAPKRLIYAASRLHRGVPSRFSGSGSGTEFTLTISSLQPEDFATYYCLQHNSYPCSFGQGTKLEIK
notes: parental mAb
For the molecule B4, binding with IGF1R was characterised by a dissociation constant (Kd) of 0.729 nM.

B5: FIT013a cMet (h1332 (13.3.2L-A91T,H-42K,S97T))/EGFR (panitumumab) (bispecific antibody, human IgG1, kappa)
chain 1: not shown
chain 2: QVQLVQSGAEVKKPGASVKVSCKASGYTFTSYGFSWVRQAPGQGLEWMGWISASNGNTYYAQKLQGRVTMTTDTSTSTAYMELRSLRSDDTAVYYCARVYADYADYWGQGTLVTVSSASTKGPSVFPLAPSSKSTSGGTAALGCLVKDYFPEPVTVSWNSGALTSGVHTFPAVLQSSGLYSLSSVVTVPSSSLGTQTYICNVNHKPSNTKVDKKVEPKSC
chain 3: not shown
notes: leader left out; also called FIT013a (c-met/EGFR)
For the molecule B5, the “EGFR Depletion (%) on H441 cell, FACS” value with membrane EGFR on cells came out at 65.9%. In addition, the Kd in test [3] was 0.534 nM; with Cyno EGFR it was 0.577 nM.

B6: FIT023a cMet (h1332)/PD-L1 (1B12) (bispecific antibody, human IgG1, kappa)
chain 1: not shown
chain 2: B5 chain 2
chain 3: not shown
notes: leader left out; also called FIT023a-Ig
Take B6: the Kd is 1.49 nM in test [4] and 0.731 nM in [5].

B7: FIT13a-Ig cMet (h1332)/EGFR (panitumumab) (bispecific antibody, human IgG1, kappa)
chain 1: not shown
chain 2: B5 chain 2
chain 3: not shown
notes: also called FIT-Ig13a
For the molecule B7, the Kd in test [6] is 1.52 nM.

B8: FIT016a HER3 (Patritumab)/IGF1R (Figitumumab) (bispecific antibody, human IgG1, kappa)
chain 1: not shown
chain 2: QVQLQQWGAGLLKPSETLSLTCAVYGGSFSGYYWSWIRQPPGKGLEWIGEINHSGSTNYNPSLKSRVTISVETSKNQFSLKLSSVTAADTAVYYCARDKWTWYFDLWGRGTLVTVSSASTKGPSVFPLAPSSKSTSGGTAALGCLVKDYFPEPVTVSWNSGALTSGVHTFPAVLQSSGLYSLSSVVTVPSSSLGTQTYICNVNHKPSNTKVDKKVEPKSC
chain 3: DIQMTQFPSSLSASVGDRVTITCRASQGIRNDLGWYQQKPGKAPKRLIYAASRLHRGVPSRFSGSGSGTEFTLTISSLQPEDFATYYCLQHNSYPCSFGQGTKLEIKRTVAAPSVFIFPPSDEQLKSGTASVVCLLNNFYPREAKVQWKVDNALQSGNSQESVTEQDSKDSTYSLSSTLTLSKADYEKHKVYACEVTHQGLSSPVTKSFNRGEC
notes: leader left out
B8: the equilibrium dissociation constant (Kd) in the test with IGF1R is 2.72 nM.

B9: FIT022a HER3 (patritumab)/PD-1 (nivolumab) (bispecific antibody, human IgG1, kappa)
chain 1: not shown
chain 2: B8 chain 2
chain 3: not shown
notes: leader left out; also called FIT022a-Ig
Molecule B9 yielded a Kd with hPD1-Fc of 2.34 nM.

B10: cMet antibody h1332 (13.3.2L-A91T,H-42K,S97T) (antibody, V domains shown)
VH: QVQLVQSGAEVKKPGASVKVSCKASGYTFTSYGFSWVRQAPGQGLEWMGWISASNGNTYYAQKLQGRVTMTTDTSTSTAYMELRSLRSDDTAVYYCARVYADYADYWGQGTLVTVSS
VL: DIQMTQSPSSVSASVGDRVTITCRASQGINTWLAWYQQKPGKAPKLLIYAASSLKSGVPSRFSGSGSGTDFTLTISSLQPEDFATYYCQQANSFPLTFGGGTKVEIK
notes: parental mAb; also called mAb-h1332
In the case of B10, the Kd came out at 2.19 nM in test [4], 2.63 nM in [7], 1.27 nM in [8] and 4.53 nM in the test with Cyno cMet. Besides, the “EGFR Depletion (%) on H441 cell, FACS” value in the test with membrane EGFR on cells turned out to be 0%.

B11: OKT3/Ofatumumab FIT7-Ig (bispecific antibody, human IgG1, kappa)
chain 1: not shown
chain 2: not shown
chain 3: not shown
notes: no linker; also called anti-CD3/CD20 FIT-Ig
Turning to B11, the “Binding Intensity by FACS (MFI)” value in test [9] is 159 MFI.

B12: OKT3/Ofatumumab FIT8-Ig (bispecific antibody, human IgG1, kappa)
chain 1: not shown
chain 2: not shown
chain 3: not shown
notes: GGGGSGS linker
With B12, the “Binding Intensity by FACS (MFI)” value in test [9] is 211 MFI.

B13: FIT012d-Ig EGFR (panitumumab)/PD-L1 (10A5) (bispecific antibody)
chain 1: not shown
chain 2: QVQLQESGPGLVKPSETLSLTCTVSGGSVSSGDYYWTWIRQSPGKGLEWIGHIYYSGNTNYNPSLKSRLTISIDTSKTQFSLKLSSVTAADTAIYYCVRDRVTGAFDIWGQGTMVTVSSASTKGPSVFPLAPSSKSTSGGTAALGCLVKDYFPEPVTVSWNSGALTSGVHTFPAVLQSSGLYSLSSVVTVPSSSLGTQTYICNVNHKPSNTKVDKKVEPKSC
chain 3: not shown
notes: leader left out
Regarding B13, in test [10], the dissociation constant (Kd) stood at 0.58 nM.

B14: FIT019b-Ig EGFR (Panitumumab)/HER3 (patritumab) (bispecific antibody, human IgG1, kappa)
chain 1: not shown
chain 2: B13 chain 2
chain 3: not shown
notes: leader left out
As to B14, the Kd in test [11] amounted to 0.338 nM.

B15: EGFR antibody Panitumumab (antibody, V domains shown)
VH: QVQLQESGPGLVKPSETLSLTCTVSGGSVSSGDYYWTWIRQSPGKGLEWIGHIYYSGNTNYNPSLKSRLTISIDTSKTQFSLKLSSVTAADTAIYYCVRDRVTGAFDIWGQGTMVTVSS
VL: DIQMTQSPSSLSASVGDRVTITCQASQDISNYLNWYQQKPGKAPKLLIYDASNLETGVPSRFSGSGSGTDFTFTISSLQPEDIATYFCQHFDHLPLAFGGGTKVEIK
notes: parental mAb
B15 gave a Kd with Cyno EGFR of 0.362 nM.

B16: PD-L1 antibody 1B12 (antibody, V domains shown)
VH: QVQLVQSGAEVKKPGSSVKVSCKTSGDTFSSYAISWVRQAPGQGLEWMGGIIPIFGRAHYAQKFQGRVTITADESTSTAYMELSSLRSEDTAVYFCARKFHFVSGSPFGMDVWGQGTTVTVSS
VL: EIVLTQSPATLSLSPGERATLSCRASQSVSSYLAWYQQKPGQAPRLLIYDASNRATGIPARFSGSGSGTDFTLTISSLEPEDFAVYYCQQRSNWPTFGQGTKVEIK
notes: parental mAb
On to B16, for which the Kd stood at 0.708 nM in test [5], 9.08 nM in [12] and 0.402 nM in test [13].

(Values after patent US20230220080A1 (EPIMAB BIOTHERAPEUTICS, published 2023).)
